Experimental data reported in PMC314469, “Protein Interaction Networks by Proteome Peptide Scanning” (PLoS Biology, 2004).

T1: amphyphisin SH3 (AMPH_HUMAN), P49418
T1 chain: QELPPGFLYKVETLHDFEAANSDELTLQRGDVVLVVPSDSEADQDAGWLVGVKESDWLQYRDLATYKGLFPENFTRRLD


How the values were obtained:
[1] = target: endophilin SH3 (SH3G2_HUMAN), Q99962; assay: SPOT array
[2] = target: T1, amphyphisin SH3 (AMPH_HUMAN), P49418; assay: SPOT array

normalised SPOT signal, Boehringer light units (BLU); mean over the file's lines of this peptide [1] | normalised SPOT signal, Boehringer light units (BLU); mean over the file's lines of this peptide [2] | Binder
13300 | 1400 | TRSPPPRPPPPAIN [Q9BQL3 97-111]
995 | 41.7 | TPPIPSKPPGGFGK [Q9H462 843-857]
67.5 | 19.2 | TPLSLKRPPPYDAV [Q9P242 471-484]
138 | 38 | TRVQPRRPTKGTHR [Q96EK0 35-48]
10400 | 804 | TRPPPIRPPFSHPI [P10323 306-320]
904 | 39.3 | TPTVPLKPPPPLTL [Q9HD71 354-368]
146 | 173 | TPPAFIRPTRKLDD [Q9UPV7 127-140]
8360 | 913 | TRGRPTRPPTRPPT [Q96F98 1-15]
2280 | 46.7 | TRKGPKRPQQPNPP [Q16632 107-120]
1100 | 71 | SFHSPRRPYASPLL [P57073 407-420]
534 | 2180 | TRYMFSRPFRKHGV [P46778 10-23]
59.1 | 94 | TPNPLERPIKMGWL [P42331 33-46]
2060 | 280 | TPAPPLRPPDSPSR [O75949 160-174]
29 | 772 | TPSELERPSRMVSR [Q14068 72-85]
96.3 | 568 | TRTDPTRPIRTPVI [Q9ULT9 312-325]
54.1 | 89.1 | TRSVLKRPERSQEE [P30304 268-281]
89.5 | 1320 | TRESIVRPSRRGGI [Q14333 228-241]
253 | 343 | TPPQPKRPRPGVSK [Q9BR39 363-376]
1190 | 78.8 | TQSLPTRPPTFPPT [Q05707 817-831]
6640 | 843 | TPASPRRPPALRSQ [Q9BUY9 390-404]
324 | 0 | TRKELERPIKVPVV [P82251 399-412]

normalised SPOT signal, Boehringer light units (BLU); mean over the file's lines of this peptide [1] | normalised SPOT signal, Boehringer light units (BLU); mean over the file's lines of this peptide [2] | Binder
8220 | 381 | TPKPPKRPRLQRPA [Q9NWH1 363-376]
56.4 | 334 | TPLSPLKPPRMDTA [Q9H898 117-131]
30.9 | 173 | TPRKILRPTKETSE [Q9BXX2 182-195]
27.6 | 6.5 | TQISLKRPRHRSVG [Q9P2Z0 180-193]
60.5 | 46.6 | TQPVLKRPRHVHSH [Q9BZH3 389-402]
123 | 177 | TRRVLLRPEKRPPV [P34969 436-449]
398 | 644 | TPVSLGRPERYRRH [Q9GZM7 384-397]
65.5 | 45.5 | SEVPLKRPRLDKNS [Q9BZW3 294-307]
48.1 | 62.6 | SEMLIKRPSKVKTI [Q8WV92 138-151]
216 | 440 | TREALSRPARTAPL [Q13424 330-343]
8780 | 567 | TRPPPIRPPFSHPL [P58840 117-131]
94.4 | 830 | TPDLLPRPPRLLLL [Q9NRA0 137-150]
13.3 | 36.1 | SELRLSRPPKAYGS [Q9H4S4 61-74]
610 | 3020 | TPRPLARPARPNLS [Q9Y6C2 143-156]
202 | 2330 | TPPDPPRPKRRSHS [Q9ULT1 709-722]
7730 | 363 | TRWPPSRPPPPSPF [Q9NP08 321-335]
68.1 | 4.8 | TRDDPYRPAKPVPT [O14730 137-150]
720 | 44.3 | TPGEFRRPRLASFG [Q14678 130-143]
451 | 90.5 | TRPKPLKPPSDLSM [P33121 45-59]
2360 | 2900 | TPPLPRRPRKGSSE [Q9H0X6 10-23]
30 | 31.6 | TPRGPRRPSGPAEL [Q9BUY9 649-662]
